Data: patent US20230110128A1, “USE OF ANTIBODY DRUG CONJUGATES COMPRISING TUBULIN DISRUPTING AGENTS TO TREAT SOLID TUMOR” (Seagen Inc., priority 2018, published 2023)

Key:
MCF7 breast cancer cells = test: Western blot analysis of ER stress response in MCF7 cells; type: cell-based; settings: FIG. 16A
Method: MCF7 breast cancer cells were treated with 100 nM MMAE for 16 hours and harvested RIPA buffer for western blot analysis.
(§1) MCF7 cells were treated with MMAE or an MMAE-containing ADC (SGN-LIV1A) for 16 hours and harvested in […] for western bot analysis. […] Induction of ICD is also characterized by the secretion of ATP and HMGB1. Extracellular ATP serves as a strong chemotactic signal, promoting immune cell migration to the tumor site. Upon arrival, extracellular HMGB1 signals through various pro-inflammatory receptors (TLR2, TLR4, RAGE) to activate antigen-presenting cells, thereby promoting immune activity within the tumor.

MCF7 cells [1] = test: ATP secretion from MCF7 cells; type: cell-based
MCF7 cells [2] = test: HMGB1 release from MCF7 cells; type: cell-based
Method: Induction of ICD is also characterized by the secretion of ATP and HMGB1. Extracellular ATP serves as a strong chemotactic signal, promoting immune cell migration to the tumor site. Upon arrival, extracellular HMGB1 signals through various pro-inflammatory receptors (TLR2, TLR4, RAGE) to activate antigen-presenting cells, thereby promoting immune activity within the tumor.
as §1

[3] = test system: PC-3 cells subcutaneously engrafted; test: Immune cell infiltration of PC-3 tumors by flow cytometry; type: in vivo, athymic nude mice; settings: single intraperitoneal dose, 8 days post-ADC treatment
Excerpt: Athymic nude mice were subcutaneously engrafted with PC-3 cells. Upon reaching 200 cubic millimeters, mice received a single intraperitoneal dose of an MMAE-containing ADC (SGN-LIV1A or anti-CD71-MMAE). 8 days post-ADC treatment, tumors were excised and assessed for immune cell infiltration and composition by flow cytometry.

[4] = test system: PC-3 cells subcutaneously engrafted; test: Cytokine/chemokine production in PC-3 tumor-bearing mice by ELISA; type: in vivo, athymic nude mice; settings: PC-3 tumors, single intraperitoneal dose, 8 days post-ADC treatment
Method: In another study, athymic nude mice were subcutaneously engrafted with PC-3 cells. Upon reaching 200 cubic millimeters, mice received a single intraperitoneal dose of an MMAE-containing ADC (SGN-LIV1A or anti-CD71-MMAE). 8 days post-ADC treatment, tumors were excised and homogenized in RIPA buffer and cytokine/chemokine production was measured by ELISA. Peripheral cytokine levels were also measured in the serum by ELISA.

[5] = test system: MCF7 cells subcutaneously engrafted; test: Immune cell composition of MCF7 tumors by flow cytometry; type: in vivo; settings: SOD mice with MCF7 tumors, single intraperitoneal dose, 8 days post-ADC treatment
Excerpt: […] were subcutaneously engrafted with MCF7 cells. Upon reaching 200 cubic millimeters, mice received a single intraperitoneal dose of an MMAE-containing ADC (SGN-LIV1A or anti-CD71-MMAE). 8 days post-ADC treatment, tumors were excised and assessed for immune cell composition by flow cytometry.

B1: SGN-LIV1A (conjugate, chains of the INN, looked up)
VH: QVQLVQSGAEVKKPGASVKVSCKASGLTIEDYYMHWVRQAPGQGLEWMGWIDPENGDTEYGPKFQGRVTMTRDTSINTAYMELSRLRSDDTAVYYCAVHNAHYGTWFAYWGQGTLVTVSS
VL: DVVMTQSPLSLPVTLGQPASISCRSSQSLLHSSGNTYLEWYQQRPGQSPRPLIYKISTRFSGVPDRFSGSGSGTDFTLKISRVEAEDVGVYYCFQGSHVPYTFGGGTKVEIK
modifications: vedotin (MMAE) payload
- Severe ER stress (phosphorylation of IRE1 and JNK) (MCF7 breast cancer cells): elicits severe ER stress (phosphorylation of IRE1 and JNK)
- Secretion of ATP (MCF7 cells [1]): increased secretion
- ATP secretion (MCF7 cells [1]; after 48 hours of treatment): Increased AIR secretion
- Secretion of HMGB1 (MCF7 cells [2]): increased secretion
- Activation of tumor-infiltrating immune cells [3]: enhanced activation
- Infiltration of immune cells into tumors [3]: increased infiltration of immune cells
- Cytokine and chemokine production (intratumoral and serum) [4]: elevated cytokine and chemokine production
- Immune activation by tumor-infiltrating immune cells [5]: increased level of immune activation by tumor-infiltrating immune cells
